These results are taken from article PMC8154232.

The target in one data set is p50-NTD (mouse, UniProt P25799 39-245). The experiment in a line: NMR.
The target in another data set is p50-RHR homodimer (mouse, UniProt P25799 39-363). The experiment in a line: NMR.
Chain of p50-RHR homodimer (P25799 39-363): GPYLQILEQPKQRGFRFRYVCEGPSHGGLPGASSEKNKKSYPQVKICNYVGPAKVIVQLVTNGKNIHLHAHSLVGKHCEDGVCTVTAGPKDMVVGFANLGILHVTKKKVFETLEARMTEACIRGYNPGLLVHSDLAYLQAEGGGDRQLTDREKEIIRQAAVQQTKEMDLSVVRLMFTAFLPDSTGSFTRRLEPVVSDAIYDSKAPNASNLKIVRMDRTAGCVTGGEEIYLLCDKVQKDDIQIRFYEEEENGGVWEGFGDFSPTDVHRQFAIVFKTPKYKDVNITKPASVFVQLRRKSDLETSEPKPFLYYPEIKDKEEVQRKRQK

Chain of p50-NTD (P25799 39-245): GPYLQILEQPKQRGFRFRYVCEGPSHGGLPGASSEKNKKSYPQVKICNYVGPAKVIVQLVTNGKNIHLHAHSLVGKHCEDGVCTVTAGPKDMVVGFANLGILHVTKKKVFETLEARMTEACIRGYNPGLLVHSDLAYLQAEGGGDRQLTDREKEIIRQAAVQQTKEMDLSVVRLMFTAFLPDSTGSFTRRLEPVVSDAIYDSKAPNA

B1: half-kB (18-mer) (dsDNA)
DNA 1: TTCGGGAAATAGAAACTC
DNA 2: GAGTTTCTATTTCCCGAA
In the case of B1, in the data set with p50-NTD, the binding result was “binds”.

B2: half-kBL (21-mer) (dsDNA)
DNA 1: CTTCGGGAAATAGAAACTCTC
DNA 2: GAGAGTTTCTATTTCCCGAAG
On to B2, for which the binding result in the data set with p50-NTD is listed as “binds”.

B3: full-kB (14-mer) (dsDNA)
DNA 1: TCGGGAATTCCCGA
DNA 2: TCGGGAATTCCCGA
B3: the binding result with p50-RHR homodimer and with p50-NTD was “binds” throughout.
